Results as given in a protein production outcome set (Wang et al. 2014).

Test: label from the status in PepcDB records

Sequence	protein production
MYEITATIVTYKNPDSVLLKAINSFLNTKLEVRLYIIDNSPTDYLKDISYDPRVEYIFMNSNNGFGAGHNVILRDPEKMGKYHLILNPDISFEEGTLEKLYDYMEGKLDVGNVMPKVIYPNGELQYLCKLLPTPKDWIVRMFLPIKSIKNRIDYNFEMKFADYDREMNIPYLSGCFMFLRKSVIEGIGVFDEGIFMYGEDTDLNRRIYRKYKTMYYPQVTITHHFEKGSHKSLRLLWIHVKAAIYYLNKWGWFFDKERSIINITVKQQYIRKLEHHHHHH	not failed
MYELYTLLAEYYDTIYRRRIERVKAEIDFVEEIFKEDAKREVRRVLDLACGTGIPTLELAERGYEVVGLDLHEEMLRVARRKAKERNLKIEFLQGDVLEIAFKNEFDAVTMFFSTIMYFDEEDLRKLFSKVAEALKPGGVFITDFPCWFYGGRDGPVVWNEQKGEEKLVIMDWREVEPAVQKLRFKRLVQILRPNGEVKAFLVDDELNIYTPREVRLLAEKYFEKVKIYGNLKRELSPNDMRYWIVGIAKSF	not failed
MYFCGIQNSTRTKGMNKAKSTMKLFGLIGLLILWNCSCVDRHRSHALCEQSLIDSLEVRAQDSLFSNLPYSRSLLRNAMRQAQDSMSYYRLMGLYGKTFFISSDFDSILYYNRPVKEYDKRAAACPRWNDVLSDVYNIEGNVWMQLNQPDSAVAYYEKSYAYRLKGEKGHLLSDICMNLADAHLHRGELAHTASYYRKALFICDSLHLSEHSKFPVYCGLGQTYMDLRDFDLSNHYYELAGQFFDEMTVSEKWVYLNNRGNHYYYKKDYQEALVYMRQAAELIADYPQMVFESNLSKVNLGDLYLLTNRLDSAENNLNEGYRYFSEIKNNSAMHYIETLMIELFLKKGNIARAREMIARTASTGHVDANMLTIRNQYLQHYYEKAGDYRNAYEYLKRDYQLNDSIRSERIRTRVAELDMRYRQDTIVLRKEMQIQRQAGEVRVLKLSMYIWVLVCLLLAAGTVVIIWYMRKKREFLRERFFQQINRVRMENLRSRISPHFTFNVLGREINQFNGSEEVKNNLMELVKYLRRSLELTEKLSVSLQDELDFVQSYIGLESGRVGEDFTASVVVEEGLDAKSIMIPSMIVQIPVENAIKHGLAGKDGEKELTIRISREGKGVRIVICDNGRGYLPQVASSTRGTGTGLKVLYQTIQLLNTKNKNEKIRFNIGNRNDGQTGTQVSVYIPFHFSYDL	failed
MYFGQNEACKKNHVVIHNELGPGIDLNIACRQFSIERTPSMFHTLKYKDPFYIIEFEDNNQLPHGERWYCLLSHGTRPKYWYDIEVYRQGYYPSCGQLRSWIAKQDGIWFTRRYDSPPGHVLNWKIQ	failed
MYFLYVGIFGALGGMCRYAMNLWLGGGDFPSATLAVNLIGCFLLAFIMPFLAEKSRISLVLLNGIGTGFIGAFTTFSAFSVDTIELLQQGEVVLAISYILVSLIGGLVMVKFGRRFSNKLLRRGAHHVD	failed
MYINKFVPVYTLLILIYSFNASAEWTGDNTNAYYSDEVISELHVGQIDTSPYFCIKTVKANGSGTPVVACAVSKQSIWAPSFKELLDQARYFYSTGQSVRIHVQKNIWTYPLFVNTFSANALVGLSSCSATQCFGPK	failed
MYIPNAFRESDTHNLQEHMDKTRLAILVTQGDDGLHATHLPLLLRSDEGPYGTLYGHMAKANPQWQQLNADAEAMVIFPGEDAYVSPSFYPSKAEHGKVVPTWNYLAVHAYGQAECFTDPDRLHQLLNDLTDRHESSRAQPWSINDAPADYIAKMLGAIVGFSIPVQRLQGKRKLSQNRSAEDMAGVRDGLGASHLANDQQIARLMSGWRPS	not failed
MYKIVSDSACDLSKEYLEKHDVTIVPLSVSFDGETYYRDGVDITRDECYQRMVDDPKLFPKTSLPSVESYADVFRSFVEQGFPVVCFTITTLFSGSYNSAINAKSLVLEDYPDANICVIDSKQNTVTQALLIDQFVRMLEDGLSFEQAMSKLDALMASARIFFTVGSLDYLKMGGRIGKVATAATGKLGVKPVIIMKDGDIGLGGIGRNRNKLKNSVLQVAKKYLDENNKDNFIVSVGYGYDKEEGFEFMKEVESTLDVKLDSETNVAIGIVSAVHTGPYPIGLGVIRKYETL	not failed
MYKKLILLFFILITFNLFSDEDVLVFYSQPSSIASKFVTGILQDSYGRIWFGTKEGLAYYDGIKYKNYEYIPFSKDSIQSSQIQCLYNDPRKAENGSDVFWIGTFYGVERFNVDTETFTHFDMTSSVVLCFLRDSHGRLWIGTLDGLYILNEDDGSVVKFSQASEFYIGNNGISHIYEDSEGRIYACTHEGLWEYDEPNKRFRRSRLFEKNSAVTDSIINNIFEEDGIYWVSVWDTGLFRIDPKNGKRDLFSFSNNKITCLSNEFSDNVLLIGTWGGGLISFDKNTYSYTEYTSKQRSYNLSNDFIFSIYVDTYGSLWVGTNGGGVNIYDTKRMWSKLILPHENKIDGRENSVSGLTKDKNGNLWISLLNNGITYYDLSTGKKKYYRYSESKIISNSVFKFYIDKNEDIWVGTDLGLCKYDKKKDAFVGVNLYNDNIIEDGERLIYNIISDDNEFLWIGTYDGGLIKFSPSSGILKRYKNDPKNPNSICSNLVFSLLIDSYKRLWVGTNKGLAEYKPSTDEFAIYRYDVNNRKGISSDRITSLFQDVSGKLWIGTSDGGINIFDTEKKEALNYTANEGLPANFIIGMTHMDNHSICVTAIKGMTIFNKDTEIIYSYTLYNHERRFTTVPIMIGDQCFVGTQEGVLGMDINYLLSFKRQEVPVKIRTIGINGNQTPVFKIDLQKTYKYKYSENNISFEFSSMDLSPLSRPSYIFMLEGFDKNWINANMKNYVQYTNLKPGKYTFKVKDISNPYPEPTSFTFIIEKPFWLSTPMIAVYILIFAGLTFLACRINRLFQYKIANKKLQQEQKDLISANEQLTVLSTVDELTGVGNRRQLDTVGKDLWRRGLDNKQPISLIMIDIDLFKQYNDLYGHQAGDNVLRTVAQTLQKKLRAKYDFVGRYGGEEFLVLLYNSSASETMKIAEKLRIEIKNLNIEHSAEKDKILTISLGAYTSVPNNELSYETMLSFADSALYKAKESGRDICKMYTE	failed
MYKKNLMKLLPAVAVIIAIAAAGFQQDSEVKSTKTVQAAENELIKSDELTSLLTTAYFNDGGMKDTDEADSSILKTKKSKSKIKKAGITTGKTKALPEKSAAASGQGQGTTTTPTTSVPKGGYKDGIYQGSGTGFGGTITVQVTISGGKIASIEILSAAGETGSYFASAKGVISKMISGQTPNVDAVSGATYSSNGIIQAVQNALSKAGKGKAAKTTKKTTKKNTNTSNKTTIPVEITKPSGEVTYKDGMYTAEAEGFDGPIKVTVTIKDGKITAITNTNTDTKEYFNKAWNSIQPKILEKQAVYGVDTVIGATFSSNGILKAVQKALEQASVNVTPAPEVTVSPTPVPTTAPAPVIPDTPKVLYNDGTYTGTGIGYGGKINISVTIKDGIITEVSQTNEGETPRYFRNAWNVIQPAIIAKQSTDGIDTVSGATYSSEGILYGAKSALEQALKTSDITATPTPNPTATPEPTAAPEPTAAPEPTAAPEPTAAPEPTATPEPTATPEPTATPEPTTAPGAGYKDGSYTGTGEGFNGQVTVTINVSGGNIVSAGYDGEDDEPEFSNAWNGIYNQIMGKQSADGIDTVTDATYSSNGLIQAFQSAISQAK	failed
MYKLDHLNHNTLDESSLELHETPKGYTNVALFGLDSRDGELSGGVRSDSIMIVSINNKTGDVKIISVYRDTLLKQQDGSYEKANAAYSFGGPQEAVAMLNRNLDLDITKYASVNFNSLADIIDILGGVEVELTSEEIFWLNGYTAETSQVVGRQTHTLDENSPGVHNLDGIQAVSYTRIRYTAGDDFKRAERQRIILQKMIQKLKTAGPVKWNKILDQVLPEISTNMTTPDIMKLGLNIFRYKIGETKGFPFDITTSENVIGLEGSYAVAIGHADNVRQLHEQLFGETGYQPSDEVQQISQDVAYLTGVLEHHHHHH	not failed
MYKLMIADDEPLIRRGIKQLIDLSSLQIGEIYEASTGEEALKVFEEFKPEIVLMDINMPKIDGLSVAKKIKSINPDTKIAIITGYNYFDYAQTAIKIGVEDYILKPISKSDVSEIIVKLVSSLQKERKDKEIEKVLEKITTVDTQDNIAKNNYKELIQNIIEESYTDSQFTLSVLSEKLDLSSGYLSIMFKKNFGIPFQDYLLQKRMEKAKLLLLTTELKNYEIAEQVGFEDVNYFITKFKKYYQITPKQYREMVLKNENE	not failed
MYKSPLTLLTLLTICFGFFDLSSALYGSSSPVVQLTASNFKSKVLNSNGVVLVEFFAPWCGHCKALTPTWEKVANILKGVATVAAIDADAHQSAAQDYGIKGFPTIKVFVPGKAPIDYQGARDAKSIANFAYKQIKGLLSDRLEGKSKPTGGGSKEKKSEPSASVELNASNFDDLVIESNELWIVEFFAPWCGHCKKLAPEWKRAAKNLQGKVKLGHVNCDVEQSIMSRFKVQGFPTILVFGPDKSSPYPYEGARSASAIESFASELVESSAGPVEVTELTGPDVMEKKCGSAAICFISFLPDILDSKAEGRNKYLEMLLSVAEKFKKQPYSFMWVAAVTQMDLEKRVNVGGYGYPAMVAMNVKKGVYAPLKSAFELQHLLEFVKDAGTGGKGNVPMNGTPEIVKTKEWDGKDGELIEEDEFSLDELMGGDDAVGSKDEL	failed
MYKVGIVLFDDFTDVDFFLMNDLLGRTSDSWTVRILGTKPEHHSQLGMTVKTDGHVSEVKEQDVVLITSGYRGIPAALQDENFMSALKLDPSRQLIGSICAGSFVLHELGLLKGKKLTTNPDAKAVLQGMGGDVQDLPLVIEGNIATAGGCLSLLYLVGWLAERLFDSVKRKQIQNQLIPAGQMEIFETLISETIQSAESAYEYRSACESDAESLVV	not failed
MYLLDTTSTAAISIYALLLTAYRSMQVLYARPIDGPAVAAEPVETRPLPAVDVIVPSFNEDPGILSACLASIADQDYPGELRVYVVDDGSRNREAIVRVRAFYSRDPRFSFILLPENVGKRKAQIAAIGQSSGDLVLNVDSDSTIAFDVVSKLASKMRDPEVGAVMGQLTASNSGDTWLTKLIDMEYWLACNEERAAQSRFGAVMCCCGPCAMYRRSALASLLDQYETQLFRGKPSDFGEDRHLTILMLKAGFRTEYVPDAIVATVVPDTLKPYLRQQLRWARSTFRDTFLALPLLRGLSPFLAFDAVGQNIGQLLLALSVVTGLAHLIMTATVPWWTILIIACMTIIRCSVVALHARQLRFLGFVLHTPINLFLILPLKAYALCTLSNSDWLSRYSAPEVPVSGGKQTPIQTSGRVTPDCTCSGE	failed
MYLLRINIEGTINYGLYKYLYPALKAAEGKKSIAGLILVFNSGGGDAASSQLIHDLVKKIRKKKPVYSLALGICASGAYWIASASTKIYAIDTSLIGSIGVISIRPNVKKLMEKIGVDVMVYKSGKYKDMTSPFSEPNEEEKSVYQRLLDDIFEKFKRSVAEDRGIPSEKIDEIANGMVYSAKMAADNGLIDRIANYDDLVSDLTKEVGKRLKVKEFYIRKPLLQRLLGILEHHHHHH	failed
MYLLTFKGLIYSAGGTWLNKGNLMYFGSLIFLFLVVFLIFSEQRTEKTSGLEKVSVQEAKEMIEKGDVFVLDVRTPDEFNSSHIKGATLIPLSNAFGSNLSSESLLKAHIDEVPKEKILVYCRTGRRSDTAGRMLVNAGYTQVYNMVGGIIAWTDAGYPVVSSEDTESEGSHN	failed
MYNLLLTILLVLSGLLEIAIFMQPQKNPSSNVFDSSGSEALFERTKARGFEAFMQRFTAVLVFFWLAIALVLAILSSK	failed
MYNSRESILSNPVQSAIVSISFFSVVAIIIIAIYPEILSPQRKMERIDDFVVIIATLTFLFIGLSLINSFGTDNMEYTYEALNNFFQGKNPYEMVYGPHTVQPTYTLSGGVASNFIYPPFSFIVYIPIYLLIKAFNLPGYVLNAENVIFAVILGLLLYKIGKEKDDPFALFPVIFLYIITAVSIPPFYGVPIVIASTFLALSYVKKNYLGGISLALAISFSQLSWLAFPFLLIYRIRSDNVGKQFLRSSYFLSFLITLSIINIPFLAWNPVRFIGNIITLNTQLIPVGQIGLTVISYSGLYPMEPWFFTIVFGVVAIFLTYLYYQLFDYLKEIIWLFPLIISWFLWRTLTEYFFMWIPLIFTSLFRTQYKLPTIKLNFKKKIVLPLLIIFVFLASLSVYAHESYVASNPLKIDEVYTLQNTPPYTALIIKVQNTKNEPVNITLVRVSIPNNLNMVWNSTETVIPPNSSALVFAYASNSLEAINSTPFTVQVYSEYYFATYTVNSTQ	failed
